In IntAct's records for PubMed 11494128:

B1: Ephrin type-B receptor 2 (Gallus gallus (Chicken)), P28693 (parent)
chain: MGPLWFCCLPLALLPLLAAVEETLMDSTTATAELGWMVHPPSGWEEVSGYDENMNTIRTYQVCNVFESSQNNWLRTKYIRRRGAHRIHVEMKFSVRDCSSIPNVPGSCKETFNLYYYESDFDSATKTFPNWMENPWMKVDTIAADESFSQVDLGGRVMKINTEVRSFGPVSKNGFYLAFQDYGGCMSLIAVRVFYRKCPRVIQNGAVFQETLSGAESTSLVAARGTCISNAEEVDVPIKLYCNGDGEWLVPIGRCMCRPGYESVENGTVCRGCPSGTFKASQGDEGCVHCPINSRTTSEGATNCVCRNGYYRADADPVDMPCTTIPSAPQAVISSVNETSLMLEWTPPRDSGGREDLVYNIICKSCGSGRGACTRCGDNVQFAPRQLGLTEPRIYISDLLAHTQYTFEIQAVNGVTDQSPFSPQFASVNITTNQAAPSAVSIMHQVSRTVDSITLSWSQPDQPNGVILDYELQYYEKNLSELNSTAVKSPTNTVTVQNLKAGTIYVFQVRARTVAGYGRYSGKMYFQTMTEAEYQTSVQEKLPLIIGSSAAGLVFLIAVVVIIIVCNRRRGFERADSEYTDKLQHYTSGHSTYRGPPPGLGVRLFVMTPGMKIYIDPFTYEDPNEAVREFAKEIDISCVKIEQVIGAGEFGEVCSGHLKLPGKREIFVAIKTLKSGYTEKQRRDFLSEASIMGQFDHPNVIHLEGVVTKSSPVMIITEFMENGSLDSFLRQNDGQFTVIQLVGMLRGIAAGMKYLADMNYVHRDLAARNILVNSNLVCKVSDFGLSRFLEDDTSDPTYTSALGGKIPIRWTAPEAIQYRKFTSASDVWSYGIVMWEVMSYGERPYWDMTNQDVINAIEQDYRLPPPMDCPNALHQLMLDCWQKDRNHRPKFGQIVNTLDKMIRNPNSLKAMAPLSSGVNLPLLDRTIPDYTSFNTVDEWLDAIKMSQYKESFASAGFTTFDIVSQMTVEDILRVGVTLAGHQKKILNSIQVMRAQMNQIQSVEV

Variants of: B1
Conditions: with abl1_mouse Abl1, P00520
abl1_mouse Abl1, P00520, sequence (P00520 whole entry): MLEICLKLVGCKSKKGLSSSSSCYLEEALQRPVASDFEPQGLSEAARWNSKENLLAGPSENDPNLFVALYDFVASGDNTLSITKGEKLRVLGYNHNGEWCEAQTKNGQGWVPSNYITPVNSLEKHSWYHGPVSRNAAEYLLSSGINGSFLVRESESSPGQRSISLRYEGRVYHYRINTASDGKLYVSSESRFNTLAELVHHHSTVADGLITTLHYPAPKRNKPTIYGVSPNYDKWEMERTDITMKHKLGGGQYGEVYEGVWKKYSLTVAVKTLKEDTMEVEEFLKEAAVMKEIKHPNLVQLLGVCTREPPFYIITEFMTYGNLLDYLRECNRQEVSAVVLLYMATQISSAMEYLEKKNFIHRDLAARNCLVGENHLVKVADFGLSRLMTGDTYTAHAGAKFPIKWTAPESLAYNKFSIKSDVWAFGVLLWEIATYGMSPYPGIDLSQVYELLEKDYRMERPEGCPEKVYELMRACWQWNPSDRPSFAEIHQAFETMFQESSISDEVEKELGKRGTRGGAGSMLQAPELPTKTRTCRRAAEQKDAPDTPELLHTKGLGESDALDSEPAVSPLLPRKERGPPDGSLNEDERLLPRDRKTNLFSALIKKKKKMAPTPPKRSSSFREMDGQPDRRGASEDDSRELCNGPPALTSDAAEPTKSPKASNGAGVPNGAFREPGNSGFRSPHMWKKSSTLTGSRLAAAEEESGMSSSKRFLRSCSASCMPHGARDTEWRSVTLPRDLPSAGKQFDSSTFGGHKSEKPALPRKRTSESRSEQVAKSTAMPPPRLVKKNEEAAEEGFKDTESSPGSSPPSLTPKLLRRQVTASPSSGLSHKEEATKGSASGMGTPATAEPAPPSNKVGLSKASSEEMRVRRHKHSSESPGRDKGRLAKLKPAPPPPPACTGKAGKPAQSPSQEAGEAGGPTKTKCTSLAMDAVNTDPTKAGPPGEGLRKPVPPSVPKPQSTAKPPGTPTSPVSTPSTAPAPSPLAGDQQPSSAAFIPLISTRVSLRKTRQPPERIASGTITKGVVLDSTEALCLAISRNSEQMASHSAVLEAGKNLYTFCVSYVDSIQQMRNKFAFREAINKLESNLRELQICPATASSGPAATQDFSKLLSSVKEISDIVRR
In the case of Y620E, the “effect of a mutation on the interaction” value is reported as “decreasing interaction strength”.
With Y614E the “effect of a mutation on the interaction” value was “decreasing interaction strength”.
Y614E;Y620E was tested, and the “effect of a mutation on the interaction” value was “disrupting interaction strength”.

Variants of: B1
Conditions: with abl1_mouse Abl1, P00520
Remark: another data set of the same source
In the case of Y614E;Y620E, the “effect of a mutation on the interaction” value is reported as “decreasing interaction strength”.
